By Kd is commonly meant a measure of binding affinity in units of concentration. The low end stands for a tighter complex, the high end for a looser complex.

The record followed here is paper PMC4894983.

Series [1] has as its target T1, CsrA-Strep (Campylobacter jejuni NCTC11168) (UniProt Q0P9F1).
T1 sequence: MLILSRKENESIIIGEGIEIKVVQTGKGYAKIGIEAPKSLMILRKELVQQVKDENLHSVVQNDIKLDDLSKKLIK
The experiment in a line: EMSA. In general terms: In EMSA bound probe runs differently from free probe, usually more slowly.

In series [2] the test system is CsrA-Strep (Campylobacter jejuni NCTC11168). The experiment in a line: EMSA.

Regarding “GGAUUAUAACUAAGAUCAAGGAGGCAGAAAUGAUCAAUCCUAUACAACAAAGUUAUGUGGCAAAUACCGCAUUAAAUACAAAUAGAAUAGAUAAAG [flgM mRNA]”, in series [1], the binding result is listed as “binds”.
With “GGAAAUUAAAAUUUUAAAAAGGAAGUUAAAAUGUCAAAACCAUUAAAUGAAGAGAUUUUUGUUGAAUUUAAAAGUGAUCUAGCUGAAAGAAAAAAUGAAGUUUUGCUUCAAGUUUUAGA [Cj0040 mRNA]”, the binding result in series [1] is listed as “binds”.
In turn, flgI leader came in with a Kd in series [2] of more than 350 nM.
The same measure, in the same setting: the same measure for flaB leader: more than 350 nM.
On the same count and under the same terms, the same measure for flaG leader: more than 350 nM; for flaA WT leader: 50 nM.
